The record followed here is patent US20240409658A1 (Seagen, published 2024).

Changes are numbered by the printed parent chain. In names and notes the source's numbering stands. Like-named read-outs stand apart in the source and are kept apart here.

Test [1] deals with human CD228 (R&D Systems Custom02; Lot DCWR021505A) (human) (UniProt P08582). Briefly: ELISA on plate-coated human CD228, pH 6.66.
The target is the same in test [2]. Put plainly: ELISA on plate-coated human CD228, pH 4.55. On the technique in general: An ELISA detects its analyte on a solid surface through an enzyme-linked reagent.
Test [3] shares this target. Put plainly: ELISA on plate-coated human CD228, pH 5.1.
The target is the same in test [4]. Put plainly: ELISA on plate-coated human CD228, pH 5.6.
Test [5] has the same target. Put plainly: ELISA on plate-coated human CD228, pH 4.
Test [6] shares this target. Put plainly: ELISA on plate-coated human CD228, pH 7.4.
Test [7] has the same target. Briefly: ELISA on plate-coated human CD228, pH 5.9.
Test [8] shares this target. Put plainly: ELISA on plate-coated human CD228, pH 6.3.
The target is the same in test [9]. Briefly: ELISA on plate-coated human CD228, pH 7.5.
Test [10] has the same target. Put plainly: ELISA on plate-coated human CD228, pH 7.1.
The target in test [11] is T1, human CD228 on the cell surface (RPMI-7951 cells stably expressing human CD228; A375 cells) (human, UniProt P08582 20-709).
T1 construct: whole, on cells; also called p97; melanotransferrin
T1 sequence (looked up): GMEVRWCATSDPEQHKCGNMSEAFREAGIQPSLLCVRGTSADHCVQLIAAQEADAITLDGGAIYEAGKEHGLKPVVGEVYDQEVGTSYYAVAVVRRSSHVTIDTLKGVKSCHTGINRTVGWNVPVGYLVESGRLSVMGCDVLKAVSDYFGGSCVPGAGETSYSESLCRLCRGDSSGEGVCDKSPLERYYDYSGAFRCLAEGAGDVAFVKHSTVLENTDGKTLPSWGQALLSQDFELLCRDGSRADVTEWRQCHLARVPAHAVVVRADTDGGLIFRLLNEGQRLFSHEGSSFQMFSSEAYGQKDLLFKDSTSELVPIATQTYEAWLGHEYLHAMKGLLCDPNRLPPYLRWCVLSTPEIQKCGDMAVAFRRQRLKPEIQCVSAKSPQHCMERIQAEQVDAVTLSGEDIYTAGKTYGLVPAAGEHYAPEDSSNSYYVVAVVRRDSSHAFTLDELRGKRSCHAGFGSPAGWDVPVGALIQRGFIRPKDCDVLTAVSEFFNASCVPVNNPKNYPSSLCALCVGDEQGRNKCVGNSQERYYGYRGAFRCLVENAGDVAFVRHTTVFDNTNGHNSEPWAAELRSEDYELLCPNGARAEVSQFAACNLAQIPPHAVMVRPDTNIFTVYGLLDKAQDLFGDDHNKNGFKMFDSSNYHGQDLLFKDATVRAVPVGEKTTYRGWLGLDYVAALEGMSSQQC
Briefly: competition flow cytometry, RPMI-7951 cells stably expressing human CD228; competitor 5 nM AF647-labeled mL49; unlabeled antibody 0.06-1000 nM. As to the method: (§1) Binding curves for each resulting antibody was determined by a competition binding assay. Briefly, 1×10⁵ RPMI-7951 cells stably expressing human CD228 were aliquoted per well of a 96-well v-bottom plates on ice. […] Cells were pelleted and washed 3 times with PBS/BSA. The cells were pelleted and resuspended in 125 μL of PBS/BSA. Fluorescence was analyzed by flow cytometry, using percent of saturated fluorescent signal to determine percent labeled murine CD228 mAb bound.
Background: Flow cytometry measures light scatter and fluorescence of single cells or particles in a stream.

Test [12] concerns the target T1, human CD228 on the cell surface …. Described as above. As to the method:
as §1
This is another data set of the same source.

Test [13] shares this target. The description is as above. As to the method:
as §1
This is another data set of the same source.

For test [14] the target is unchanged. The description is as above. Here is the method: as §1
The source holds these as a separate data set.

Test [15] has the same target. Described as above. Here is the method: as §1
This is another data set of the same source.

For test [16] the target is unchanged. The test is described as above. Here is the method: as §1
The source holds these as a separate data set.

Test [17] has the same target. Briefly: saturation binding by flow cytometry on RPMI-7951 cells stably expressing human CD228; apparent KD. As to the method: (§2) The KD for each resulting antibody was then determined by a saturation binding assay. Briefly, 1×10⁵ RPMI-7951 cells stably expressing human CD228 were aliquoted per well of a 96-well v-bottom plates. Each CD228 antibody was added in concentrations ranging from 0.05 pM to 340 nM and incubated on ice for 60 minutes. Cells were pelleted and washed 3× with PBS/BSA followed by addition of 10 ug/ml of a PE labeled anti-human IgG goat secondary antibody and incubated on ice for an additional 60 minutes. Cells were pelleted and washed 3× with PBS/BSA and resuspended in 125 μL of PBS/BSA. Fluorescence was analyzed by flow cytometry, using percent of saturated fluorescent signal to determine percent bound and to subsequently calculate apparent KD. The binding curves for recombinant human anti-CD228 antibodies are shown in FIG. 13 and the KD for cL49ec (chimeric LA9 with an S239C mutation in the […] constant region), hL49 HALA G1, hL49 HALB G1, and hL49 HALC G1 are shown in Table 8. The antibody called “HALC,” “hL49,” or “hL49-HALC” which comprises heavy chain “HA” and the light chain “LC” was selected for use in all other experiments.

For test [18] the target is unchanged. Briefly: saturation binding by flow cytometry, RPMI-7951 cells stably expressing human CD228; PE anti-human IgG secondary; row 'ug/mL' of the drawn table headed 'kD'. As to the method:
as §2

Test [19] deals with T2, human CD228 on the cell surface (RPMI-7951 cells stably expressing human CD228; A375 cells) (human) (UniProt P08582).
T2 sequence (looked up): T1 sequence (looked up)
Briefly: competition flow cytometry, RPMI-7951 cells stably expressing human CD228; competitor 5 nM AF647-labeled mL49; unlabeled antibody 0.06-1000 nM.

Broadly, the EC50 is the midpoint of the concentration-response curve. Low values mean a more potent agent, high ones a less potent agent. Turning to cL235 (antibody), the EC50 is 0.757 nM in [1]; 0.727 nM in [2]; 0.756 nM in test [3]; 0.74 nM in test [4]; 0.809 nM in [5]; 0.767 nM in test [6]. Besides, the EC50 was determined as 0.838 nM in test [7], 0.749 nM in test [8], 0.694 nM in test [9] and 0.724 nM in [10].

B1: mouse antibody L49 (mL49), AlexaFluor-647 labeled parental murine CD228 mAb (antibody, mouse IgG1, V domains shown)
VH: EVQLQESGPSLVKPSQTLSLTCSVTGDSITSGYWNWIRKFPGNKLEYMGYISDSGITYYNPSLKSRISITRDTSKNQYYLQLNFVTAEDTATYNCARRTLATYYAMDYWGQGTSVTVSS
VL: DFVMTQTPLSLPVSLGDQASISCRASQSLVHSNGNTYLHWYLQKPGQSPKLLIYRVSNRFSGVPDRFSGSGSGTDFTLKISRVEAEDLGVYFCSQSTHVPPTFGGGTKLEIK
notes: also called Mu L49
Turning to B1, the “IC50 (read off the curve)” value in test [11], in [12], in test [13], in [14], in [15] and in [16] was 10 to 20 nM in each case.

B2: cL49ec (chimeric L49 with an S239C mutation) (antibody, V domains shown)
VH: B1 VH
VL: B1 VL
notes: Human constant regions with S239C; also called chimeric LA9
Consider B2, for which the Kd in test [17] was 5.8 nM; in [18], 0.9 µg/mL. In addition, the “IC50 (read off the curve)” value in test [12], in test [14], in test [15] and in [16] was approximately 30 nM in each case.

B3: hL49ec HCLA (antibody, V domains shown)
VH: QVQLQESGPGLVKPSETLSLTCTVSGDSITSGYWNWIRQFPGKGLEYMGYISDSGITYYNPSLKSRITISRDTSKNQYSLKLSFVTAADTAVYNCARRTLATYYAMDYWGQGTLVTVSS
VL: DFVMTQSPLSLPVTLGQPASISCRASQSLVHSNGNTYLHWFQQRPGQSPRRLIYRVSNRFSGVPDRFSGSGSGTDFTLKISRVEAEDVGVYYCSQSTHVPPTFGQGTKLEIK
The molecule B3 had an IC50 (read off the curve) in test [19] of 60 nM.

B4: hL49 HALA G1 (antibody, V domains shown)
VH: B3 VH with F40P, M48I, I67V, F84S, N94Y
VL: B3 VL
notes: Humanized L49 with heavy chain HA and light chain LA; 'G1' (IgG1)
Regarding B4, the Kd worked out at 5.3 nM in [17] and 0.8 µg/mL in test [18].

B5: hL49ec HALA (antibody, V domains shown)
VH: B3 VH with F40P, M48I, I67V, F84S, N94Y
VL: B3 VL
notes: Same variable regions as m5 (hL49 HALA G1); The sheet prints 'ec', so it is kept apart from the G1 form; also called HALA in the 'ec' format
For B5, the “IC50 (read off the curve)” value in test [15] and in test [16] was approximately 40 nM throughout.

B6: hL49ec HBLA (antibody, V domains shown)
VH: B3 VH with F84S, N94Y
VL: B3 VL
The molecule B6 came in with an IC50 (read off the curve) in test [19] of 40 nM.

B7: hL49ec HCLB (antibody, V domains shown)
VH: B3 VH
VL: B3 VL with F41Y, R51L
B7 came in with an IC50 (read off the curve) in test [19] of 20 nM.

B8: hL49ec HBLB (antibody, V domains shown)
VH: B3 VH with F84S, N94Y
VL: B3 VL with F41Y, R51L
In test [19], B8 showed an IC50 (read off the curve) of 30 nM.

B9: hL49ec HALB (antibody, V domains shown)
VH: B3 VH with F40P, M48I, I67V, F84S, N94Y
VL: B3 VL with F41Y, R51L
notes: Same variable regions as m6 (hL49 HALB G1); The sheet prints 'ec', so it is kept apart from the G1 form; also called HALB in the 'ec' format
B9: the “IC50 (read off the curve)” value in [15] lay in the range of 20 to 30 nM.

B10: hL49 HALB G1 (antibody, V domains shown)
VH: B3 VH with F40P, M48I, I67V, F84S, N94Y
VL: B3 VL with F41Y, R51L
notes: Humanized L49 with heavy chain HA and light chain LB; 'G1' (IgG1)
In the case of B10, the results for the Kd in test [17] and in test [18] were 7.8 nM and 1.2 µg/mL, respectively.
